Data as given in patent publication US6436691B1, “Chemical compounds” (Zeneca Limited, priority 1995, dated 2002).

Key:
[1] = HCPB activity of COS-7 cell supernatants against Hipp-Arg (5 h assay); assay type: biochemical; conditions: COS-7 cell supernatant 250 μl
Experimental: (§1) Measurements were carried out at 37° C. in 0.25 mM Tris HCl buffer, pH 7.5 using 1 cm path length cuvettes in a total volume of 1.0 ml using a Perkin Elmer Lambda 2 spectrophotometer. Km and Vmax values were calculated using the ENZFITTER software programme (Biosoft, Perkin Elmer). Kcat was calculated from Vmax by dividing by the enzyme concentration in the reaction mixture.
For expression in eukaryotic cells, vectors containing genes capable of expressing preHCPB and the prepro sequence were cotransfected into COS-7 cells. COS cells are an African green monkey kidney cell line, CV-1, transformed with an origin-defective SV40 virus and have been widely used for short-term transient expression of a variety of proteins because of their capacity to replicate circular plasmids containing an SV40 origin of replication to very high copy number. There are two widely available COS cell clones, COS-1 and COS-7. The basic methodology for transfection of COS cells is described by Bebbington in Methods: A Companion to Methods in Enzymology (1991) 2, p. 141. […] Cell supernatants (250 μl) were analysed for HCPB activity against Hipp-Arg (5 h assay) as described in Reference Example 3. […]

[2] = Km and kcat of recombinant HCPB against Hipp-Arg, spectrophotometric assay; assay type: biochemical; conditions: Hipp-Arg 0.75-[…]; CPB 1 μg/ml; 37° C.; pH 7.5
Experimental: Purified human CPB, produced as described in Reference Example 12, was assayed for its ability to convert hippuryl-L-arginine (Hipp-Arg; Sigma) to hippuric acid using a spectrophotometric assay.
as §1

[3] = Conversion of Hipp-Asp to hippuric acid by mutant and native human CPB, HPLC assay (Example 6); assay type: biochemical; conditions: 5 hr at 37° C.; 4 μg enzyme; 0.5 mM substrate
Experimental: (§2) Purified mutants of human CPB (D253K and D253R; Examples 1-3) and native human CPB, produced as described in Reference Example 12, were assayed for their ability to convert either hippuryl-L-aspartic acid (Hipp-Asp—Reference Example 2), hippuryl-L-glutamic acid (Hipp-Glu—Reference Example 1) or hippuryl-L-arginine (Sigma Chemical Company—cat no. H6625) to hippuric acid using a HPLC based assay.
(§3) The reaction mixture (250 μl) contained 4 μg human CPB (native or mutant) and 0.5 mM Hipp-Asp or Hipp-Glu in 0.025 M Tris-HCL, pH 7.5. Samples were incubated for 5 hr at 37° C. The reactions were terminated by the addition of 250 μl of 80% methanol, 20% distilled water, 0.2% trifluoro acetic acid and the amount of hippuric acid generated was quantified by HPLC.
(§4) HPLC analysis was carried out using a Hewlett Packard 1090 Series 11 (with diode array) HPLC system. Samples (50 μl) were injected onto a Hichrom Hi-RPB column (25 cm) and separated using a mobile phase of 40% methanol, 60% distilled water, 0.1% trifluoro acetic acid at a flow rate of 1 ml/min. The amount of product (hippuric acid) produced was determined from calibration curves generated with known amounts of hippuric acid (Sigma-H6375). The results are shown in Table 1 and are expressed as the percentage conversion of substrate into product in 5 hr at 37° C. with 4 μg enzyme.

[4] = Conversion of Hipp-Glu to hippuric acid by mutant and native human CPB, HPLC assay (Example 6); assay type: biochemical; conditions: 5 hr at 37° C.; 4 μg enzyme; 0.5 mM substrate
Experimental: as §2, §3, §4

[5] = Conversion of Hipp-Arg to hippuric acid by mutant and native human CPB, HPLC assay (Example 6); assay type: biochemical; conditions: 5 hr at 37° C.; 4 μg enzyme
Experimental: as §2, §3, §4

[6] = tested on: LoVo colorectal tumour cells; conditions: 100 μg enzyme added to assay wells containing glutamic acid prodrug

B1: proHCPB: proHCPB expressed from COS-7 cells (plasmid pMF49), activated with trypsin (protein, UniProt P15086 16-417, looked up)
pro-form: HHGGEHFEGEKVFRVNVEDENHINIIRELASTTQIDFWKPDSVTQIKPHSTVDFRVKAEDTVTVENVLKQNELQYKVLISNLRNVVEAQFDSRVRATGHSYEKYNKWETIEAWTQQVATENPALISRSVIGTTFEGRAIYLLKVGKAGQNKPAIFMDCGFHAREWISPAFCQWFVREAVRTYGREIQVTELLDKLDFYVLPVLNIDGYIYTWTKSRFWRKTRSTHTGSSCIGTDPNRNFDAGWCEIGASRNPCDETYCGPAAESEKETKALADFIRNKLSSIKAYLTIHSYSQMMIYPYSYAYKLGENNAELNALAKATVKELASLHGTKYTYGPGATTIYPAAGGSDDWAYDQGIRYSFTFELRDTGRYGFLLPESQIRATCEETFLAIKYVASYVLEHLY
modifications: pro-form
hydrolysis of the Hipp-Arg substrate ([1]; after activation with trypsin 700 μg/ml): complete hydrolysis

B2: Native HCPB: purified recombinant native human pancreatic carboxypeptidase B (protein, UniProt P15086 111-417, looked up)
Carboxypeptidase B: ATGHSYEKYNKWETIEAWTQQVATENPALISRSVIGTTFEGRAIYLLKVGKAGQNKPAIFMDCGFHAREWISPAFCQWFVREAVRTYGREIQVTELLDKLDFYVLPVLNIDGYIYTWTKSRFWRKTRSTHTGSSCIGTDPNRNFDAGWCEIGASRNPCDETYCGPAAESEKETKALADFIRNKLSSIKAYLTIHSYSQMMIYPYSYAYKLGENNAELNALAKATVKELASLHGTKYTYGPGATTIYPAAGGSDDWAYDQGIRYSFTFELRDTGRYGFLLPESQIRATCEETFLAIKYVASYVLEHLY
Km [2]: 180 µM
kcat against Hipp-Arg [2]: 65 s⁻¹
Hipp-Asp (% conversion to Hippuric acid) [3]: 0%
Hipp-Glu (% conversion to Hippuric acid) [4]: 0%
Hipp-Arg (% conversion to Hippuric acid) [5]: 100%
cytotoxicity of the glutamic acid prodrug with enzyme added [6]: does not significantly enhance

B3: HCPB: mature HCPB in supernatant of COS-7 cells co-transfected with preHCPB and prepro sequence plasmids (protein, UniProt P15086 111-417, looked up)
Carboxypeptidase B: ATGHSYEKYNKWETIEAWTQQVATENPALISRSVIGTTFEGRAIYLLKVGKAGQNKPAIFMDCGFHAREWISPAFCQWFVREAVRTYGREIQVTELLDKLDFYVLPVLNIDGYIYTWTKSRFWRKTRSTHTGSSCIGTDPNRNFDAGWCEIGASRNPCDETYCGPAAESEKETKALADFIRNKLSSIKAYLTIHSYSQMMIYPYSYAYKLGENNAELNALAKATVKELASLHGTKYTYGPGATTIYPAAGGSDDWAYDQGIRYSFTFELRDTGRYGFLLPESQIRATCEETFLAIKYVASYVLEHLY
Hipp-Arg substrate hydrolysed ([1]; co-transfection with prepro sequence): 61%
